What was measured:
gp41-longNC (HIV-1) = gp41-longNC (HIV-1) (UniProt P04578); assay: AUC
gp41-longNC = assay: BLI; conditions: pH 4.0; second pH 7.0; 0.1% DPC

Substance: gp41-longNC (from UniProt P04578) (domain or fragment)
- stoichiometry N (gp41-longNC (HIV-1)): 3

Substance: 4E10
- fold difference (gp41-longNC): 30-fold

Substance: 2F5
- fold difference in KD at pHs 4 and 7 (gp41-longNC): 4,000-fold

From article PMC4348151
